Target: dynein intermediate chain (DIC), endogenous, human iPSC-derived motor neurons (human (endogenous in iPSC-derived motor neurons)) (UniProt O14576)
Assay: proximity ligation

Chain of UniProt O14576 (O14576 whole entry): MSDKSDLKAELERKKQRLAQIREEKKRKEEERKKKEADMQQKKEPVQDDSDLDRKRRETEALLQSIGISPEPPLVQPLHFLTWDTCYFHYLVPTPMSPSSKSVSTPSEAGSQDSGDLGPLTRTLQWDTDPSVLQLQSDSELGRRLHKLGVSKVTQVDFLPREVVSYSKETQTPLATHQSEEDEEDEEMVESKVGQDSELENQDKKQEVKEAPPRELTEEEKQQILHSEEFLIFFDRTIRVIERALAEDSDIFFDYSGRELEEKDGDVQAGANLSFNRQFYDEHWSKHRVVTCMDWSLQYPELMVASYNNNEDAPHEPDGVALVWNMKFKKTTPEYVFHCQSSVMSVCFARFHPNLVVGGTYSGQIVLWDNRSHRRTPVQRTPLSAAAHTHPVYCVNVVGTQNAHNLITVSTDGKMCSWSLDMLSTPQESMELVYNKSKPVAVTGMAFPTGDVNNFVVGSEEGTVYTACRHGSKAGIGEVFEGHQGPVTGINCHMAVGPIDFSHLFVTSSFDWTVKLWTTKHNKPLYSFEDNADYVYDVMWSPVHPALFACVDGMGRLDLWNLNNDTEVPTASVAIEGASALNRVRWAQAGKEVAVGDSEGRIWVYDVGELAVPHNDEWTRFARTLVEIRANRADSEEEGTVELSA

PLA puncta (C9orf72 iPSC-derived MN distal axons, without peptides): 8.9
Substance: CRMP4, endogenous, human iPSC-derived motor neurons (from UniProt Q14195 1-570) (natural protein)
